From article PMC3961690
Values joined by “and” are separate entries in the source; they are usually repeats but may differ in a detail not shown here. Identical values can stand only once. Like-named read-outs stand apart in the source and are kept apart here.

Experiments:
Cys69 = Cys69 (UniProt position 69, FGDYKCPSCKV); conditions: cited from earlier work
Asp455 = Asp455 (UniProt position 474, KPVMLDLYADW); assay: NMR; conditions: 298 K, isolated domain, folded
Cys461 = Cys461 (UniProt position 480, LYADWCVACKE); assay: NMR; conditions: 298 K, isolated domain, folded
Cys30 = Cys30 (UniProt position 49, FFSFFCPHCYQ); conditions: cited from earlier work
Asp26 = Asp26 (UniProt position 26, KLVVVDFSATW); conditions: cited from earlier work
Cys32 = Cys32 (UniProt position 32, FSATWCGPCKM); conditions: reduced human thioredoxin; cited from earlier work
[1] = not stated, 1 mM protein, oxidised (Cys-461-Cys-464 disulfide)
[2] = oxidised (Cys-461-Cys-464 disulfide)
[3] = not stated, 1 mM protein, reduced (dithiol)

In the case of “Disulfide bond formation protein D (BdbD) (Bacillus subtilis)”, the pKa (Cys69) is given as “less than 4.5”.
In the case of “DsbD C-terminal domain, Q488A variant (Q488A-cDsbD) (Escherichia coli; Q488A)”, the pKa (Asp455; [1]) is reported as 7.7 and 7.5 and the pKa (Asp455; [2]) is reported as 8.0 ± 0.3.
For “DsbD C-terminal domain, Q488K variant (Q488K-cDsbD) (Escherichia coli; Q488K)”, the pKa (Asp455; [1]) was 8.0, the pKa (Asp455; [3]) was 7.2 and 7.1 and the pKa (Asp455; [2]) was 8.1 ± 0.2. For the same substance, the pKa (Asp455; reduced (dithiol)) was 7.5 ± 0.4, the pKa (Cys461; not stated (pH adjusted with 0.1 M DCl or NaOD), 1 mM protein, reduced (Cys-461/Cys-464 dithiol)) was 10.3 and 10.5 and 10.4 and the pKa (Cys461; [3]) was 10.9. It also gave a pKa (Cys461; reduced (dithiol)) of 10.5 ± 0.2.
For “Thiol:disulfide interchange protein DsbA (Escherichia coli)”, the pKa (Cys30) is given as 3.5.
For “Thioredoxin (Trx1), human (Homo sapiens)”, the pKa (Asp26; oxidised human thioredoxin) is given as 8.1, the pKa (Asp26; reduced human thioredoxin) is given as 9.9 and the pKa (Cys32) is given as 6.3.
